# Data as given in article PMC10454665, “Structural Analysis of Plasmodium falciparum Hexokinase Provides Novel Information about Catalysis Due to a Plasmodium-Specific Insertion” (International Journal of Molecular Sciences, 2023).
# B1: Plasmodium falciparum hexokinase (enzyme)
# chain: MSEYDIAKNDVTYTKLDTIECDIPINEELSWRINKFVNQLRISYSTLEEFVDNFVYELKKGLEAHRKHPNLWIPHECSFKMLDSCIANIPTGQEKGTYYAIDFGGTNFRAVRASLDGKGKIKRDQETYSLKFTGSYSHEKGLLDKHATASQLFDHFAERIKYIMGEFNDLDNKEVKSVGFTFSFPCTSPSINCSILIDWTKGFETGRATNDPVEGRDVCKLMNDAFVRAAIPAKVCCVLNDAVGTLMSCAYQKGRGTPPCYIGIILGTGSNGCYYEPEWKKYKYAGKIINIEFGNFDKDLPTSPIDLVMDWYSANRSRQLFEKMISGAYLGEIVRRFMVNVLQSACSKKMWISDSFNSESGSVVLNDTSKNFEDSRKVAKAAWDMDFTDEQIYVLRKICEAVYNRSAALARGTIAAIAKRIKIIEHSKFTCGVDGSLFVKNAWYCKRLQEHLKVILADKAENLIIIPADDGSGKGAAITAAVIALNADIPQLP
# notes: Hexokinase of Plasmodium falciparum, PlasmoDB PF3D7_0624000, gene ordered codon-optimised for E. coli and cloned into pET30a-c(+); the model holds I25-N486 (subunit A) and I23-I489 (subunit B); The PlasmoDB id is that of strain 3D7; also called PfHK; P. falciparum hexokinase
# Molecular target: the molecule itself
# Test: SEC; HiLoad 16/60 Superdex 200 on an AKTA pure system after Talon purification; PfHK eluted at ~65 mL; mass estimated from a calibration curve
protein,measurement,value
B1,stoichiometry N,4
